Numbering of substitutions follows the chain as printed.
B1: llama heavy chain antibody fragment VHH D7, wild type (VHH)
VHH: AVQLVESGGGLAQAGGSLRLSCTVSGRTSSSHDMGWFRQAPGKEREFVAAISWSGGTTNYADSVKGRFAISKDNAKNAVSLQMNSLKPEDTAVYYCAAKWRPLRYSDNPSNSDYNYWGQGTQVTVSS
notes: PDB 2xa3 holds D7 with the framework changes Val5Gln, Ala11Val, Ala61Val, Ala68Asp and Ser79Tyr against wild type D7
B2: VHH D7 Leu99→Ala (VHH)
VHH: B1 VHH with L103A
notes: PDB 2xa3 holds D7 with five framework changes) with the stated CDR3 mutation; Chothia numbering
B3: VHH D7 double mutant Asn101→Tyr/Tyr102→Asp (VHH)
VHH: B1 VHH with N115Y, Y116D
notes: PDB 2xa3 holds D7 with five framework changes) with the stated CDR3 mutations; Chothia numbering; also called double mutant Asn^101Tyr^102
B4: VHH D7 Asp100C→Ala (VHH)
VHH: B1 VHH with D107A
notes: PDB 2xa3 holds D7 with five framework changes) with the stated CDR3 mutation; Chothia numbering (100C is an insertion position)
B5: VHH D7 Asn100D→Ala (VHH)
VHH: B1 VHH with N108A
notes: PDB 2xa3 holds D7 with five framework changes) with the stated CDR3 mutation; Chothia numbering (100D is an insertion position)
B6: VHH D7 Tyr100A→Ala (VHH)
VHH: B1 VHH with Y105A
notes: PDB 2xa3 holds D7 with five framework changes) with the stated CDR3 mutation; Chothia numbering (100A is an insertion position)
B7: VHH D7 Lys95→Ser (VHH)
VHH: B1 VHH with K99S
notes: as for B2
B8: VHH D7 Trp96→Ala (VHH)
VHH: B1 VHH with W100A
notes: as for B2

The binders below were run against T1, HIV-1 envelope glycoprotein gp120 (IIIB) (HIV-1 IIIB (HXB2 clone entry), UniProt P04578) (assay: SPR; gp120 (IIIB) coupled covalently to a CM5 chip; D7 or D7 mutants at 25 and 100 nM flowed over; Biacore X; 10 mM HEPES pH 7.5, 100 mM NaCl, 0.05% P20; 30 µl/min; association 3 min, dissociation 15 min; simultaneous fit of association and dissociation). Conditions: both partners purified.
Work on B1 yielded a Kd of 2.91 ± 0.87 nM, a koff of 0.000551 s⁻¹ and a kon of 155000 M⁻¹ s⁻¹.
B2 was tested, and the Kd was 69.9 ± 14.2 nM, the koff was 0.005 s⁻¹ and the kon was 14000 M⁻¹ s⁻¹.
B3 was tested, and the Kd was 0.18 ± 0.15 nM, the koff was 3.3e-05 s⁻¹ and the kon was 187000 M⁻¹ s⁻¹.
B4 showed a Kd of 0.84 ± 0.12 nM, a koff of 0.000199 s⁻¹ and a kon of 236000 M⁻¹ s⁻¹.
B5 showed a Kd of 0.51 ± 0.02 nM, a koff of 0.000128 s⁻¹ and a kon of 252000 M⁻¹ s⁻¹.
Binder B6 has a Kd of 1.55 ± 0.07 nM, a koff of 0.000359 s⁻¹ and a kon of 233000 M⁻¹ s⁻¹.
B7 gave a Kd of 377 ± 276 nM, a koff of 0.00236 s⁻¹ and a kon of 13000 M⁻¹ s⁻¹.
B8 showed a Kd of 27.9 ± 20.5 nM, a koff of 0.00313 s⁻¹ and a kon of 146000 M⁻¹ s⁻¹.

Each binder was assayed against T1, HIV-1 envelope glycoprotein gp120 (IIIB) (assay: cell-based or functional assay). Conditions: not given.
B1 was tested, and the “IC50 of neutralisation of HIV-1 IIIB in TZM-bl cells, Average” value (shortened to “IC50 of neutralisation … Average”) was 0.054 µg/mL, the “IC50 of neutralisation of HIV-1 IIIB in TZM-bl cells, Exp1” value (“IC50 of neutralisation … Exp1” below) was 0.066 µg/mL and the “IC50 of neutralisation of HIV-1 IIIB in TZM-bl cells, Exp2” value (shortened to “IC50 of neutralisation … Exp2”) was 0.041 µg/mL.
For B2, the “IC50 of neutralisation … Average” value was 0.69 µg/mL, the “IC50 of neutralisation … Exp1” value was 0.817 µg/mL and the “IC50 of neutralisation … Exp2” value was 0.56 µg/mL.
With B3 the “IC50 of neutralisation … Average” value was 0.011 µg/mL, the “IC50 of neutralisation … Exp1” value was 0.017 µg/mL and the “IC50 of neutralisation … Exp2” value was 0.005 µg/mL.
With B4 the “IC50 of neutralisation … Average” value was 0.027 µg/mL, the “IC50 of neutralisation … Exp1” value was 0.4 µg/mL and the “IC50 of neutralisation … Exp2” value was 0.014 µg/mL.
For B6, the “IC50 of neutralisation … Average” value was 0.023 µg/mL, the “IC50 of neutralisation … Exp1” value was 0.028 µg/mL and the “IC50 of neutralisation … Exp2” value was 0.018 µg/mL.
In the case of B7, the “IC50 of neutralisation … Average” value is reported as 3 µg/mL, the “IC50 of neutralisation … Exp1” value is reported as 3.43 µg/mL and the “IC50 of neutralisation … Exp2” value is reported as 2.64 µg/mL.
B8 was tested, and the “IC50 of neutralisation … Average” value was 2.6 µg/mL, the “IC50 of neutralisation … Exp1” value was 2.72 µg/mL and the “IC50 of neutralisation … Exp2” value was 2.43 µg/mL.
